Where a chain is given by its changes, count along the chain named. Where no end group is shown, it is not given here. Me3 = trimethyl
T1: MORC4 CW domain K460A/R462A/R463A (human, UniProt Q8TE76 417-475, K460A | R462A | R463A)
T1 construct: CW-type zinc finger domain of human MORC4, aa 417-475, triple mutant; Uniformly 15N-labelled in the NMR experiment; also called CWKRR; MORC4 CWKRR; source: E. coli, grown and purified as wild-type protein (glutathione agarose, GST tag cleaved)
T1 sequence (looked up): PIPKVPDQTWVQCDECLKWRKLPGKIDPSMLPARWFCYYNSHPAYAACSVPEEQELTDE

T2: MORC4 CW domain (aa 417-475) (human, UniProt Q8TE76 417-475)
T2 construct: CW-type zinc finger domain of human MORC4, aa 417-475, cloned into pGEX 6p-1; Uniformly 15N-labelled in the NMR experiments; unlabelled protein was further purified by size exclusion chromatography; also called WT MORC4 CW domain; source: E. coli Rosetta2 (DE3) pLysS or BL21 (DE3) RIL, purified (glutathione agarose, GST tag cleaved)
T2 sequence (looked up): T1 sequence (looked up) with A44K, A46R, A47R

B1: MORC4 ATPaseCW cassette (aa 29-486) (domain or fragment, human, UniProt Q8TE76 29-486, looked up)
chain: GIRLSTMSPRYLQSNSSSHTRPFSAIAELLDNAVDPDVSARTVFIDVEEVKNKSCLTFTDDGCGMTPHKLHRMLSFGFTDKVIKKSQCPIGVFGNGFKSGSMRLGKDALVFTKNGGTLTVGLLSQTYLECVQAQAVIVPIVPFNQQNKKMIITEDSLPSLEAILNYSIFNRENDLLAQFDAIPGKKGTRVLIWNIRRNKNGKSELDFDTDQYDILVSDFDTEEKMTGGVTSELPETEYSLRAFCGILYMKPRMKIFLRQKKVTTQMIAKSLANVEYDTYKPTFTNKQVRITFGFSCKNSNQFGIMMYHNNRLIKSFEKVGCQVKPTRGEGVGVIGVIECNFLKPAYNKQDFEYTKEYRLTINALAQKLNAYWKEKTSQDNFETSTVARPIPKVPDQTWVQCDECLKWRKLPGKIDPSMLPARWFCYYNSHPKYRRCSVPEEQELTDEDLCLSKAKKQE
notes: ATPase domain and CW domain of human MORC4, aa 29-486, cloned into pDEST15; Homodimer in the crystal with AMPPNP and Mg2+; source: E. coli Rosetta2 (DE3) pLysS or BL21 (DE3) RIL, purified (glutathione agarose, GST tag cleaved, SEC)
B2: histone H3K4me3 peptide (aa 1-12 of H3) (peptide, UniProt P68431 2-13, looked up)
peptide: ARTK(Me3)QTARKSTG
notes: N-terminal tail of histone H3, aa 1-12
B3: unmodified histone H3 peptide (aa 1-12 of H3) (peptide, UniProt P68431 2-13, looked up)
peptide: ARTKQTARKSTG
notes: N-terminal tail of histone H3, aa 1-12; also called H3K4; unmodified H3 peptide

Legend:
[1] = target: the molecule itself; assay: crystal structure; ATPaseCW (aa 29-486) with AMPPNP and Mg2+, 2.9 Å; crystallised after incubation with H3K4me3 peptide and 2 mM AMPPNP
[2] = target: T1, MORC4 CW domain K460A/R462A/R463A; assay: NMR titration; 1H,15N HSQC of 15N-labelled CWKRR titrated with H3K4me3 peptide; 20 mM Tris-HCl pH 6.8, 150 mM NaCl, 2 mM DTT; details: both partners purified
[3] = target: B1; assay: other fluorescence titration; tryptophan fluorescence, 25 °C; ATPaseCW in the presence of 601 DNA (ATPaseCW:601 DNA complex), increasing histone peptide; details: both partners purified
[4] = target: T2, MORC4 CW domain (aa 417-475); assay: other fluorescence titration; tryptophan fluorescence, 25 °C; 0.5-1 µM ATPaseCW or CW in 20 mM Tris pH 6.8, 100 mM NaCl, 2 mM DTT, increasing histone peptide; details: both partners purified
[5] = target: B1; assay: as above; details: both partners purified

Row | binding result [2] | Kd [3] | Kd [4] | Kd [5] | Binder | binding result [1]
1 | – | – | – | – | B1 | binds
2 | binds | 40 nM | 112 nM | 180 nM | B2 | –
3 | – | – | 2700 nM | – | B3 | –
